These results are taken from article PMC11257983 (2024).

The chains are these.
B1: Flag-CNK^2–549 [Drosophila] / Myc-MEK [Drosophila] (parent)
chain 1: MSKNKLNLVLPPVNTEATVAAATVAPTPPFKTPSGTDTHSLLGKPKTSIDALTETLEGLDMGDTERKRIKMFLSQKEKIGELSDEDLEKLGELGSGNGGVVMKVRHTHTHLIMARKLIHLEVKPAIKKQILRELKVLHECNFPHIVGFYGAFYSDGEISICMEYMDGGSLDLILKRAGRIPESILGRITLAVLKGLSYLRDNHAIIHRDVKPSNILVNSSGEIKICDFGVSGQLIDSMANSFVGTRSYMSPERLQGTHYSVQSDIWSLGLSLVEMAIGMYPIPPPNTATLESIFADNAEESGQPTDEPRAMAIFELLDYIVNEPPPKLEHKIFSTEFKDFVDICLKKQPDERADLKTLLSHPWIRKAELEEVDISGWVCKTMDLPPSTPKRNTSPN
chain 2: AYINIAEWTPDQVTDWIKGLDESMKGYLYEFSKQEIGGRALLNIRPYELENLGMLRIGHQEIVLEAVENLRNFHYHLKNDNLQFMALHVATAAKNLHRELARNHAESTKIDTRILHDITRTIATLKPLVGSLERTPFRKQEMYREYCGNVLKCGLELATIAHRDRFALQPVPAIRQSAERLENLANFVIQDISDPMVLQPASLNLVTLKKRESELGFNIESSYNGIHRVTDIKYNSPAHNSGKIEDGDEIVQINYQTVVGWQHRTVLEHLREALPDVVLTVKKRPKHTKMFGQIYMQPYRLPSKKRNMAARWAAQMPSPRAAFLTLDTEQLATGGTGSAVPDPSKSLSSEKREVLTKANPVSSASDSDSSCSDIPTPTDPKLAAREIRLYYPKPRALLQRRNTICGCEYLSLKNSDLVVPSWHERKPGIGSPTNCDPGSPSIRDKSISFGYGLEMAARPTTCIGIAGDTSTDKARRMFHEARKLKQLTEDSQREFLVDRYKPGVSKVVRFDAKEDYVMKNEKFICNVENTILETFEPIPFADEGDEDA

In the first assay the parent is B1. The experiment in a line: GST pull-down, immunoblot quantification. The settings on record: with Myc-MEK [Drosophila], S2 cells, Flag-CNK2–549, V5-KSR, GST-HYP co-expressed, captured via GST-HYP, anti-Myc (MEK) blot, parent: 1.
Consider chain 2 AYINIAEWTPDQVTDWIKGLDESMKGYLYEFSKQEIGGRALLNIRPYELENLGMLRIGHQEIVLEAVENLRNFHYHLKNDELQFMALHVATAAKNLHRELARNHAESTKIDTRILHDITRTIATLKPLVGSLERTPFRKQEMYREYCGNVLKCGLELATIAHRDRFALQPVPAIRQSAERLENLANFVIQDISDPMVLQPASLNLVTLKKRESELGFNIESSYNGIHRVTDIKYNSPAHNSGKIEDGDEIVQINYQTVVGWQHRTVLEHLREALPDVVLTVKKRPKHTKMFGQIYMQPYRLPSKKRNMAARWAAQMPSPRAAFLTLDTEQLATGGTGSAVPDPSKSLSSEKREVLTKANPVSSASDSDSSCSDIPTPTDPKLAAREIRLYYPKPRALLQRRNTICGCEYLSLKNSDLVVPSWHERKPGIGSPTNCDPGSPSIRDKSISFGYGLEMAARPTTCIGIAGDTSTDKARRMFHEARKLKQLTEDSQREFLVDRYKPGVSKVVRFDAKEDYVMKNEKFICNVENTILETFEPIPFADEGDEDA [chain 2 N81E], for which the ratio to parent was 0.27.

As to chain 2 AYINIAEWTPDQVTDWIKGLDESMKGYLYEFSKQEIGGRALLNIRPYELENLGMLRIGHQEIVLEAVENLRNFHYHLKNDWLQFMALHVATAAKNLHRELARNHAESTKIDTRILHDITRTIATLKPLVGSLERTPFRKQEMYREYCGNVLKCGLELATIAHRDRFALQPVPAIRQSAERLENLANFVIQDISDPMVLQPASLNLVTLKKRESELGFNIESSYNGIHRVTDIKYNSPAHNSGKIEDGDEIVQINYQTVVGWQHRTVLEHLREALPDVVLTVKKRPKHTKMFGQIYMQPYRLPSKKRNMAARWAAQMPSPRAAFLTLDTEQLATGGTGSAVPDPSKSLSSEKREVLTKANPVSSASDSDSSCSDIPTPTDPKLAAREIRLYYPKPRALLQRRNTICGCEYLSLKNSDLVVPSWHERKPGIGSPTNCDPGSPSIRDKSISFGYGLEMAARPTTCIGIAGDTSTDKARRMFHEARKLKQLTEDSQREFLVDRYKPGVSKVVRFDAKEDYVMKNEKFICNVENTILETFEPIPFADEGDEDA [chain 2 N81W], the ratio to parent came out at 0.05.

As to chain 2 AYINIAEWTPDQVTDWIKGLDESMKGYLYEFSKQEIGGRALLNIRPYELENLGMLRIGHQEIVLEAVENLRNFHYHLKNDNLQFMALHVATAAKELHRELARNHAESTKIDTRILHDITRTIATLKPLVGSLERTPFRKQEMYREYCGNVLKCGLELATIAHRDRFALQPVPAIRQSAERLENLANFVIQDISDPMVLQPASLNLVTLKKRESELGFNIESSYNGIHRVTDIKYNSPAHNSGKIEDGDEIVQINYQTVVGWQHRTVLEHLREALPDVVLTVKKRPKHTKMFGQIYMQPYRLPSKKRNMAARWAAQMPSPRAAFLTLDTEQLATGGTGSAVPDPSKSLSSEKREVLTKANPVSSASDSDSSCSDIPTPTDPKLAAREIRLYYPKPRALLQRRNTICGCEYLSLKNSDLVVPSWHERKPGIGSPTNCDPGSPSIRDKSISFGYGLEMAARPTTCIGIAGDTSTDKARRMFHEARKLKQLTEDSQREFLVDRYKPGVSKVVRFDAKEDYVMKNEKFICNVENTILETFEPIPFADEGDEDA [chain 2 N95E], the ratio to parent was 0.94.

Consider chain 2 AYINIAEWTPDQVTDWIKGLDESMKGYLYEFSKQEIGGRALLNIRPYELENLGMLRIGHQEIVLEAVENLRNFHYHLKNDNLEFMALHVATAAKNLHRELARNHAESTKIDTRILHDITRTIATLKPLVGSLERTPFRKQEMYREYCGNVLKCGLELATIAHRDRFALQPVPAIRQSAERLENLANFVIQDISDPMVLQPASLNLVTLKKRESELGFNIESSYNGIHRVTDIKYNSPAHNSGKIEDGDEIVQINYQTVVGWQHRTVLEHLREALPDVVLTVKKRPKHTKMFGQIYMQPYRLPSKKRNMAARWAAQMPSPRAAFLTLDTEQLATGGTGSAVPDPSKSLSSEKREVLTKANPVSSASDSDSSCSDIPTPTDPKLAAREIRLYYPKPRALLQRRNTICGCEYLSLKNSDLVVPSWHERKPGIGSPTNCDPGSPSIRDKSISFGYGLEMAARPTTCIGIAGDTSTDKARRMFHEARKLKQLTEDSQREFLVDRYKPGVSKVVRFDAKEDYVMKNEKFICNVENTILETFEPIPFADEGDEDA [chain 2 Q83E], for which the ratio to parent was 0.04.

Staying with this assay, now noted: with Flag-CNK^2–549 [Drosophila]; S2 cells; Flag-CNK2–549, V5-KSR, Myc-MEK, GST-HYP co-expressed; captured via GST-HYP; anti-Myc (MEK) blot; parent: 1.
For chain 1 MSKNKLNLVLPPVNTEATVAAATVAPTPPFKTPSGTDTHSLLGKPKTSIDALTETLEGLDMGDTERKRIKMFLSQKEKIGELSDEDLEKLGELGSGNGGVVMKVRHTHTHLIMARKLIHLEVKPAIKKQILRELKVLHECNFPHIVGFYGAFYSDGEISICMEYMDGGSLDLILKRAGRIPESILGRITLAVLKGLSYLRDNHAIIHRDVKPSNILVNSSGEIKICDFGVSGQLIDSMANSFVGTRSYMSPERLQGTHYSVQSDIWSLGLSLVEMAIGMYPIPPPNTATLESIFADNAEESGQPTDEPRAMAIFELLDYIVNRPPPKLEHKIFSTEFKDFVDICLKKQPDERADLKTLLSHPWIRKAELEEVDISGWVCKTMDLPPSTPKRNTSPN [chain 1 E323R], the ratio to parent came to 0.56.

Still in this assay, the particulars now being: with Flag-CNK^2–549 [Drosophila]; S2 cells; Flag-CNK2–549, V5-KSR, Myc-MEK, GST-HYP co-expressed; captured via GST-HYP; anti-V5 (KSR) blot; parent: 1.
As for chain 1 MSKNKLNLVLPPVNTEATVAAATVAPTPPFKTPSGTDTHSLLGKPKTSIDALTETLEGLDMGDTERKRIKMFLSQKEKIGELSDEDLEKLGELGSGNGGVVMKVRHTHTHLIMARKLIHLEVKPAIKKQILRELKVLHECNFPHIVGFYGAFYSDGEISICMEYMDGGSLDLILKRAGRIPESILGRITLAVLKGLSYLRDNHAIIHRDVKPSNILVNSSGEIKICDFGVSGQLIDSMANSFVGTRSYMSPERLQGTHYSVQSDIWSLGLSLVEMAIGMYPIPPPNTATLESIFADNAEESGQPTDEPRAMAIFELLDYIVNRPPPKLEHKIFSTEFKDFVDICLKKQPDERADLKTLLSHPWIRKAELEEVDISGWVCKTMDLPPSTPKRNTSPN [chain 1 E323R], the ratio to parent stood at 0.66.
